Test results as given in patent US20200123268A1 (UNIVERSIT DEGLI STUDI MAGNA GRAECIA CATANZARO, published 2020).
Numbering of substitutions follows the chain as printed. Blank lines part the entries; values can stand above or below the binder they belong to.

How the values were obtained:
[1] = biological target: T1, recombinant human CD43 extracellular portion (aa 20-253) produced in E. coli (human, UniProt P16150 20-253); assay: SPRi (PlexArray HT), antibody printed on the chip, Recombinant Human CD-43 (AA20-253) as analyte at 2.84 to 45.6 nM, 25 C
T1 construct: Made in E. coli, without mammalian glycosylation; No tags are stated; also called aglycosylated extracellular portion of CD43; unglycosylated-CD43 protein
T1 sequence: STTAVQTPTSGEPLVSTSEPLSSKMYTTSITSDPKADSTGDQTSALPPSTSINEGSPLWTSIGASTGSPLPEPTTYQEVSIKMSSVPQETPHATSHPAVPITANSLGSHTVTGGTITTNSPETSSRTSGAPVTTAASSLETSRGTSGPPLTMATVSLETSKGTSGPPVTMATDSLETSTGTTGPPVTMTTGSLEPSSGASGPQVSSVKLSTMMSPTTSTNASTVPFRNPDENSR
Method: (§1) Antibodies dissolved in water were manually printed onto the bare gold-coated (thickness 47 nm) PlexArray Nanocapture Sensor Chip (Plexera Bioscience, Seattle, Wash., US) at 40% humidity. Different concentration of the analytes (CD43) were tested for affinity. Each concentration was printed in replicate, and each spot contained 0.2 uL of sample solution. The chip was incubated in 80% humidity at 4° C. for overnight, and rinsed with 10×PBST for 10 min, 1×PBST for 10 min, and deionized water twice for 10 min. The chip was then blocked with 5% (w/v) non-fat milk in water overnight, and washed with 10×PBST for 10 min, lx PBST for 10 min, and deionized water twice for 10 min before being dried under a stream of nitrogen prior to use. SPRi measurements were performed with PlexAray HT (Plexera Bioscience, Seattle, Wash., US). Collimated light (660 nm) passes through the coupling prism, reflects off the SPR-active gold surface, and is received by the CCD camera. […] The signal changes after binding and washing (in AU) are recorded as the assay value.
(§2) Selected protein-grafted regions in the SPR images were analyzed, and the average reflectivity variations of the chosen areas were plotted as a function of time. Real-time binding signals were recorded and analyzed by Data Analysis Module (DAM, Plexera Bioscience, Seattle, Wash., US). […]

[2] = biological target: T2, human CD43, endogenous, on primary cells and cell lines that carry the UMG1 epitope (human, UniProt P16150 20-400, native glycosylation of the cell concerned); assay: competition flow cytometry on CEM cells against 1 ug/ml h-UMG1-PE
T2 construct: also called UMG1 antigen; the target
T2 sequence: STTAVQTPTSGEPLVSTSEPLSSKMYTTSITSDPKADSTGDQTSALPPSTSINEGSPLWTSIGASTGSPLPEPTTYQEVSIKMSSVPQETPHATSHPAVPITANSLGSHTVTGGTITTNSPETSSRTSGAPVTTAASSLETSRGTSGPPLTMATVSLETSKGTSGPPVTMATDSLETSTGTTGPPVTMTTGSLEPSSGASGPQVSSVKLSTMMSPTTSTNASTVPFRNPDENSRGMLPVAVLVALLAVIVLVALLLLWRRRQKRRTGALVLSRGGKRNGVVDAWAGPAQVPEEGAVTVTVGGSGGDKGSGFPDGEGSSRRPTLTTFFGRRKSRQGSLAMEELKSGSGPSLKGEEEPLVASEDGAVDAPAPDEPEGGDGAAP
Method: (§3) Approximately, 500,000 cells were collected and stained for each test. Cell were analyzed and measured with FACS Canto (Becton Dickinson) and analyzed by DIVA software (BD FACSDiva™ software). For each measurement 10,000 events were gated using the DIVA software. Each experiment was performed in triplicate.

[3] = biological target: T1, recombinant human CD43 extracellular …; assay: SPRi (PlexArray HT), antibody printed on the chip, CD43 aa 20-253 from E. coli as analyte, 25 C
Method: as §1, §2

[4] = biological target: T3, CD43 #6 (CD43 with deletion of aa 64 to 78), expressed in HEK293T cells (human, UniProt P16150 20-400); assay: western blot of lysates of transfected HEK293T cells
T3 construct: also called CD43 Clone #6; not shown: His tag from the vector pLenti-CMV-(insert)-Histag-GFP-2A-Puro
T3 sequence: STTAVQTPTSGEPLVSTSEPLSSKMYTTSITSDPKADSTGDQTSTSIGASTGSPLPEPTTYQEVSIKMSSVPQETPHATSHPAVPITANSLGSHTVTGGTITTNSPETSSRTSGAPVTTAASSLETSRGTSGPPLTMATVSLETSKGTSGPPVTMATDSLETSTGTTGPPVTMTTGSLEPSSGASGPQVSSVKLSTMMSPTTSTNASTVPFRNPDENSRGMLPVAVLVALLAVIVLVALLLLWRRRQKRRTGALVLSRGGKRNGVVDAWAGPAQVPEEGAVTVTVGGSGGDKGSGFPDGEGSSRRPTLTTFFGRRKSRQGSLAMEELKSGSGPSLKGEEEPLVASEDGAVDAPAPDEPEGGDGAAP

[5] = biological target: T2, human CD43, endogenous, on primary …; assay: competition flow cytometry on HPB-ALL cells against 1 ug/ml h-UMG1-PE
Method: as §3

[6] = biological target: T4, CD43 #5 (truncated CD43, aa 91-400), expressed in HEK293T cells (human, UniProt P16150 91-400); assay: western blot of lysates of transfected HEK293T cells
T4 construct: also called CD43 Clone #5; not shown: His tag from the vector pLenti-CMV-(insert)-Histag-GFP-2A-Puro
T4 sequence: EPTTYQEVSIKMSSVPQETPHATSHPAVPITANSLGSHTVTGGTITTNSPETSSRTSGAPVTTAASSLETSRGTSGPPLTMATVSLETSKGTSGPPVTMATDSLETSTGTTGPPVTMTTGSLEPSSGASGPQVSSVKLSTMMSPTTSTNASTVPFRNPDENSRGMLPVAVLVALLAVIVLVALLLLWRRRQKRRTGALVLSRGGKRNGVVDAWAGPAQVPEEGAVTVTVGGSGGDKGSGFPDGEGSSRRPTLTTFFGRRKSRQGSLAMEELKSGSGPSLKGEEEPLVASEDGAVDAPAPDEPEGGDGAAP

[7] = biological target: T3, CD43 #6 (CD43 with deletion of aa 64 to …); assay: flow cytometry on transfected HEK293T cells, percent h-UMG1-PE positive among GFP positive cells
Method: (§4) Each vector was transiently expressed in HEK293T cells by using Lipofectamine LTX (Thermo Fisher Scientific, MA, USA) according to the manufacturer's protocol. HEK293T cells were maintained at 37° C. and 5% CO₂ in DMEM supplemented with 10% FBS and 1% penicillin/streptomycin (ThermoFisher Scientific, MA, USA). 72 h after transfection, cells were subjected to western blot or flow cytometry (FACS) analysis.
(§5) Samples were acquired by flow cytometry (LSRFortessa™ X-20, BD) and analyzed by DIVA software (BD FACSDiva™ software). A minimum of 20,000 events were gated for each measurement.

[8] = biological target: T5, CD43 #8 (CD43 aa 1-400 with T69N), expressed in HEK293T cells (human, UniProt P16150 20-400); assay: flow cytometry on transfected HEK293T cells, 1 ug/ml h-UMG1-PE, percent positive among GFP positive cells
T5 construct: also called CD43 Clone #8; not shown: His tag from the vector pLenti-CMV-(insert)-Histag-GFP-2A-Puro
T5 sequence: T2 sequence with T50N

[9] = biological target: T6, CD43 #7 (CD43 with deletion of aa 69), expressed in HEK293T cells (human, UniProt P16150 20-400); assay: as above
T6 construct: also called CD43 Clone #7; not shown: His tag from the vector pLenti-CMV-(insert)-Histag-GFP-2A-Puro
T6 sequence: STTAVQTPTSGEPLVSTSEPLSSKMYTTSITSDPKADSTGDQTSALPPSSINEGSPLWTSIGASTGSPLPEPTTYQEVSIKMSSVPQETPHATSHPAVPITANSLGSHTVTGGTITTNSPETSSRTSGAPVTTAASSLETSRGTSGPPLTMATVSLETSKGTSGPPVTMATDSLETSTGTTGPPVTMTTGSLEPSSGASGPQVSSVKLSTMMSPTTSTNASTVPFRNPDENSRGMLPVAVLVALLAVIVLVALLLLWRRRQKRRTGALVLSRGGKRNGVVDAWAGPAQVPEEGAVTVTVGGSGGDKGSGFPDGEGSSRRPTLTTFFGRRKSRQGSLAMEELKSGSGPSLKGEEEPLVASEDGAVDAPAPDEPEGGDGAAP

[10] = biological target: T4, CD43 #5 (truncated CD43, aa 91-400), …; assay: flow cytometry on transfected HEK293T cells, percent h-UMG1-PE positive among GFP positive cells
Method: as §4, §5

koff [1]: 0.000511 s⁻¹ | kon [1]: 5140 M⁻¹ s⁻¹ | IC50 (read off the curve) [2]: ~0.04 µg/mL | Kd [3]: 99.4 nM | binding result [4]: no binding (tested: 1:500 dilution) | IC50 (read off the curve) [5]: ~0.4 µg/mL | binding result [6]: no binding (tested: 1:500 dilution)
B1: h-UMG1 (humanized UMG1 antibody H3-L4) (antibody, human IgG1, kappa, V domains shown)
VH: EVQLVESGGGLVQPGGSLRLSCVASGFTFSSFGMHWVRQAPGKGLEWVAYISSGSGNFYYVDTVKGRFTISRDNAKNSLYLQMNSLRAEDTAVYYCARSTYYHGSRGAMDYWGQGTLVTVSS
VL: QVVMTQSPAFLSVTPGEKVTITCSASSSVSSMYWYQLKPDQAPKLLIYDTSKMASGVPIRFSGSGSGTDFTFTVSSVEAEDAATYYCQQWSSYPPITFGGGTKVEIKR
notes: The full chains are given as Human Heavy Chain (VH3) and Human Light Chain (VL4); IgG1; also called unconjugated h-UMG1

binding result [7]: no binding (tested: 1 ug/ml) | binding result [8]: binds | binding result [9]: binds | binding result [10]: no binding (tested: 1 ug/ml)
B2: h-UMG1-PE (phycoerythrin-conjugated h-UMG1) (antibody, human IgG1, kappa, V domains shown)
VH: B1 VH
VL: B1 VL
modifications: phycoerythrin conjugate, site not stated
notes: also called h-UMG1-PE conjugated antibody
